# Data taken from PMC9784564 (2022).
# Target: CoV-2-RBD of the SARS-CoV-2 Inhibitor Screening Kit (SARS-CoV-2, UniProt P0DTC2 319-541)
# Test: ELISA
binder,measurement,value
"CB79 (antibody, V domains shown) VH: QVHLVQSGAEVKKPGASVKVSCKASGYTFTDYYMHWVRQAPGQGLEWMGRINPNSGGTNYPETLQGRVTMTTDTSTSTAYLEVRSLTPDDTAVYYCARVPYCSSTSCYSDWYFDLWGQGTLVTVSS VL: DIVLTQSPLSLPVTPGETASISCRSSQSILDSDDGNTYLDWYLQKPGQSPQLLIYSLSYRASGVPDRFSASGSGTDFTLKISGVEAEDVGVYYCMQRIEFPLTFGGGTKLEIK",IC50,0.14 µg/mL
